Three molecules from US20250296984A1 (THELPER, published 2025) can be followed below.

Test [1] has as its target T1, US28 of HCMV strain TB40/E fused to a C-terminal 6His tag (human cytomegalovirus (HCMV) strain …, UniProt P69332 1-354).
T1 construct: also called TB40/E form of US28
T1 chain: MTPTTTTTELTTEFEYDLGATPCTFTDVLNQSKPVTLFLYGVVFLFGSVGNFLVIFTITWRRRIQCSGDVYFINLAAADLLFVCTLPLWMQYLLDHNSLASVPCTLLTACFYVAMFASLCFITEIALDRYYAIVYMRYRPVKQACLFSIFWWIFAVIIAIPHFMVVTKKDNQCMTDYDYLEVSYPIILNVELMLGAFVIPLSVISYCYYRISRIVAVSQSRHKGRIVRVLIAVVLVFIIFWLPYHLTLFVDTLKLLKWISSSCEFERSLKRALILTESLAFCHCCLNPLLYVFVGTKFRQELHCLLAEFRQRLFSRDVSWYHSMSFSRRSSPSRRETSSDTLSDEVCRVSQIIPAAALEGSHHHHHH
Description: flow cytometry, CHO cells (FIG. 21C). (In general: Flow cytometry measures light scatter and fluorescence of single cells or particles in a stream.)

The target of test [2] is T1, US28 of HCMV strain TB40/E fused to a …. Description: flow cytometry, CHO cells (FIG. 21D).
In test [3] the target is T2, US28 of HCMV strain DB fused to a C-terminal 6His tag (human cytomegalovirus (HCMV) strain DB, UniProt P69332 1-354).
T2 chain: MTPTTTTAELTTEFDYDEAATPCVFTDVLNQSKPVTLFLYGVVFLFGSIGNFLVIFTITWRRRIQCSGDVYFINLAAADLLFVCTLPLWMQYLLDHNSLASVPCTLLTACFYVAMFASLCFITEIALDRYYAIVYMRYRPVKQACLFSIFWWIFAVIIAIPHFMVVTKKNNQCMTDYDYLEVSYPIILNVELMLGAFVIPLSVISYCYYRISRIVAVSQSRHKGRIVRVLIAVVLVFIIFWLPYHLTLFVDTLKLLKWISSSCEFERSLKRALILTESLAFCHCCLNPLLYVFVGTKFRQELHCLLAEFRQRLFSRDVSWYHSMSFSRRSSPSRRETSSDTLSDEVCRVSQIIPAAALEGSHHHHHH
The test can be described thus: flow cytometry, processed data of FIG. 33.

Test [4] addresses T1, US28 of HCMV strain TB40/E fused to a …. Description: flow cytometry, processed data of FIG. 33.
For test [5], the target named is T3, US28 of HCMV strain Merlin fused to a C-terminal 6His tag (human cytomegalovirus (HCMV) strain …, UniProt F5HF62 1-354).
T3 construct: also called Merlin-encoded US28
T3 sequence: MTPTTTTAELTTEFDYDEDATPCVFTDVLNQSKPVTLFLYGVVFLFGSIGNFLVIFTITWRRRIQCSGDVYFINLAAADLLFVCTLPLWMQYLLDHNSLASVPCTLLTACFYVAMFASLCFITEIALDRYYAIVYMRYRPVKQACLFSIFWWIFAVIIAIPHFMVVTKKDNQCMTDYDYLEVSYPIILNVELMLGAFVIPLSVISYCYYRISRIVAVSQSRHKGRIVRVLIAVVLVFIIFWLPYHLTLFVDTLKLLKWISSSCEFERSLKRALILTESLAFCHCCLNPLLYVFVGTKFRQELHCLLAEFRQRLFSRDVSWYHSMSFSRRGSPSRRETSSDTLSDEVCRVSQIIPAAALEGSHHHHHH
Description: flow cytometry, processed data of FIG. 33.

Test [6] deals with T4, mutated US28 (artificial form with all known US28 mutations) fused to a C-terminal 6His tag (artificial variant of human …, UniProt P69332 1-354).
T4 construct: also called mutated strain; CHO-mutated strain
T4 chain: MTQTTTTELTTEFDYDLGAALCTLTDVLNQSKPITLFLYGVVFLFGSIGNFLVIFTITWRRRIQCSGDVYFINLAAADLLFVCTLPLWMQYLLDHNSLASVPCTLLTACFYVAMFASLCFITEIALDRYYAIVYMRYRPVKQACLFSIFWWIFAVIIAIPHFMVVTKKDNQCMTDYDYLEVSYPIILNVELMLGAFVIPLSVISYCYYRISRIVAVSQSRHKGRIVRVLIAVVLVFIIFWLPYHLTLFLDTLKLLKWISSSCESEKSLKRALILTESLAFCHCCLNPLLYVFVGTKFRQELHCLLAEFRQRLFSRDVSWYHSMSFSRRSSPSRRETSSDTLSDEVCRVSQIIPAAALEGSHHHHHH
Description: flow cytometry, CHO cells expressing the mutated US28.

The target in test [7] is T2, US28 of HCMV strain DB fused to a …. Description: flow cytometry, CHO cells expressing US28 of strain DB.
For test [8], the target named is T5, US28 of HCMV strain VHL/E fused to a C-terminal 6His tag (human cytomegalovirus (HCMV) strain …, UniProt P69332 1-354).
T5 construct: also called VHL/E-encoded US28
T5 chain: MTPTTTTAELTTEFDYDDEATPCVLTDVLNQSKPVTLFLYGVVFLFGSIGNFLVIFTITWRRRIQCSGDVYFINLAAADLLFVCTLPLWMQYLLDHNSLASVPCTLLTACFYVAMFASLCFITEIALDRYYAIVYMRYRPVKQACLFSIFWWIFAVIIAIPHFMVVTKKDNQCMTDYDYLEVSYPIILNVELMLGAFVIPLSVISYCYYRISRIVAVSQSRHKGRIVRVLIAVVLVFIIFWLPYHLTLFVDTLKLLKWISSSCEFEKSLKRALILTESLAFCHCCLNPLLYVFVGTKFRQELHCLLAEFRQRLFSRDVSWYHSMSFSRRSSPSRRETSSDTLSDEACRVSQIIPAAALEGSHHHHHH
The test can be described thus: flow cytometry, processed data of FIG. 33; reference.

Test [9] has as its target T1, US28 of HCMV strain TB40/E fused to a …. Description: flow cytometry, CHO cells expressing US28 of strain TB40/E.
For test [10], the target named is T2, US28 of HCMV strain DB fused to a …. Description: flow cytometry, transfected HEK Phoenix cells, 6.76 nM.
In test [11] the target is T1, US28 of HCMV strain TB40/E fused to a …. Described as above.
In test [12] the target is T5, US28 of HCMV strain VHL/E fused to a …. The description is as above.
Test [13] deals with T3, US28 of HCMV strain Merlin fused to a …. The description is as above.
In test [14] the target is T4, mutated US28 (artificial form with all …). The test can be described thus: flow cytometry, CHO-mutated strain against control CHO cells (FIG. 21B).
The target in test [15] is T2, US28 of HCMV strain DB fused to a …. Description: flow cytometry, CHO-US28 against control CHO cells.
The target is the same in test [16]. The test can be described thus: flow cytometry, CHO-US28 against control CHO cells.
In test [17] the target is T6, US28 of HCMV strain Ad169 (human cytomegalovirus (HCMV) strain …, UniProt P69332 1-354).
T6 sequence: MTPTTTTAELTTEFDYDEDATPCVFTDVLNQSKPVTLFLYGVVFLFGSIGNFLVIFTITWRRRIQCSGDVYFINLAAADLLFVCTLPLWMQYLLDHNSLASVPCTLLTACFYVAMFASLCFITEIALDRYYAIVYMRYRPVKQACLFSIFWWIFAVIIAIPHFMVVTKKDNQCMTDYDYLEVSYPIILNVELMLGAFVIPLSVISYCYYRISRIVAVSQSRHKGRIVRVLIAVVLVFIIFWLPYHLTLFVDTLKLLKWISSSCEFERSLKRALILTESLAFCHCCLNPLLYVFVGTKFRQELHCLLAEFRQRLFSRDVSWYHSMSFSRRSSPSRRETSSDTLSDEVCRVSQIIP
Description: flow cytometry, HCMV Ad169 infected against Mock MRC-5 cells.

Like-named read-outs stand apart in the source and are kept apart here.

B1: bivalent VUN100 (VHH)
chain: EVQLVESGGGLVQPGGSLRLACAVSGPGLIFKFTGVAWYRRQVPGAKRGLVALITGDGATRYGDSVKGRFTVSRDIAAKRVYLEMNDLRSEDTAVYYCKTGEYWGQGTQVTVSSGGGGSGGGGSGGGGSGGGGSGGGGSGGGGSEVQLVESGGGLVQPGGSLRLACAVSGPGLIFKFTGVAWYRRQVPGAKRGLVALITGDGATRYGDSVKGRFTVSRDIAAKRVYLEMNDLRSEDTAVYYCKTGEYWGQGTQVTVSSEQKLISEEDLHHHHHH
notes: also called VUN100b; BvVUN100
As for B1, in test [1], the “% change in absolute binding between the DB and TB40/E forms” value (“% change” for short) was above 40%. In test [2], the “% retention of binding activity between the DB and TB40/E forms” value (“% retention” for short) is at most 60%. In addition, the “variation in binding relative to US28 as encoded by VHL/E” value was -2.92 in test [3], -14.8 in test [4], -2.41 in [5] and 0 in test [8]. Moreover, the results for the “% of cells bound” value in [6], in [7] and in test [9] were 2.58%, 9.24% and 5.2%, respectively. In addition, the “binding value (Preliminary Binding Data)” value in [10] stood at 0.62; in test [11] it was 0.16; in test [12], 2.29; in [13] it was 0.71. The “specificity (US28 cells over control cells)” value in test [14] was found to be 2.43 fold.

B2: US28-13-5G6-1D3 (antibody, V domains shown)
VH: EVKLVESGGGLVQPGGSLRLACATSGFTFTDYYMSWVRQPPGKALEWLGFIRSKANGYTTEYSASVKGRFTISRDNSQSILYLQMNTLRSEDSATYYCARDERRTAWLAYWGQGTLVTVSA
VL: DVLMTQTPLSLPVSLGDQASISCRSSQSIVHSNGNTYLDWYLQKPGQSPKLLIYKVSNRFSGVPDRFSGSGSGTDFTLKISRVEAEDLGVYYCFQGSHVPTWTFGGGTKLEIKR
notes: also called US28-13-5G6-1D3 rAb; 13-5G6-1D3 clone
B2: in [1], the “% change” value is below 10%. For the same molecule, the “% retention” value in test [2] is around 100%. Also, the “% of cells bound” value in test [6] came to 12.9%; in [7], 16.6%; in [9] it was 18.2%. Moreover, the “binding specificity comparative to the specificity displayed by VUN100” value in test [15] and in [16] was 1.65 fold each time. In addition, the “fold binding, infected over uninfected cells” value in test [17] is around 16 fold. Besides, the “specificity (US28 cells over control cells)” value in test [14] is around 15 fold.

B3: monovalent VUN100 (VHH)
VHH: EVQLVESGGGLVQPGGSLRLACAVSGPGLIFKFTGVAWYRRQVPGAKRGLVALITGDGATRYGDSVKGRFTVSRDIAAKRVYLEMNDLRSEDTAVYYCKTGEYWGQGTQVTVSS
notes: also called Mv VUN100; VUN100 Ab
Regarding B3, in test [1], the “% change” value was above 35%. In addition, the “% retention” value in test [2] was at most 60%. Also, the “% of cells bound” value in [6] was determined as 1.41%; in test [7] it was 6.91%; in test [9], 4.33%. Also, the binding result in test [6] is given as “no binding”. For the same molecule, the “specificity (US28 cells over control cells)” value in [14] was below 1 fold.
